In IntAct's records for PubMed 25946333:

B1: Nuclear envelope integral membrane protein 1 (Mus musculus), Q6ZQE4 (parent)
chain: MAGGIKVSVWSAVGPGPRCWGAGGGGGATWLLLVVAGCVVCGSADVNVVMLQESQVDMNSSQQFCYKNVLIPKWHDIWTRIQVRVNSSKLVRVTQVDNEEKLKELEQFSIWNFFSSFLKEKLNDTYVNVGLYSTKTCLKVEMIEKDTTYSVTVTRRFDPKLFLVFLLGLTLFFCGDLLSRSQIFYYSTGMSVGIVASLLIVIFMISKFMPKRSPIYVILVGGWSFSLYLIQLVFKNLQEIWRSYWHYLLSYILTVGFMSFAVCYKYGPLENERSINLLTWTLQLLGLGLMYSSIQIPHVAFALIVIALCTKNLEYPIHWLCSTYRRMCKASGKPVPPRLLTEEEYRIQGEVETQKALQELREFCNSPECSAWKTISRIQSPKRFADFVEGSFHLTPNEVSVHEQEYGLGSIFTQDEELSSEEEGSEYPTFTQNNFLT

Variants of: B1
Conditions: with ran_mouse Ran

| effect of a mutation on the interaction | Variant |
| --- | --- |
| disrupting interaction strength | MAGGIKVSVWSAVGPGPRCWGAGGGGGATWLLLVVAGCVVCGSADVNVVMLQESQVDMNSSQQFCYKNVLIPKWHDIWTRIQVRVNSSKLVRVTQVDNEEKLKELEQFSIWNFFSSFLKEKLNDTYVNVGLYSTKTCLKVEMIEKDTTYSVTVTRRFDPKLFLVFLLGLTLFFCGDLLSRSQIFYYSTGMSVGIVASLLIVIFMISKFMPKRSPIYVILVGGWSFSLYLIQLVFKNLQEIWRSYWHYLLSYILTVGFMSFAVCYKYGPLENERSINLLTWTLQLLGLGLMYSSIQIPHVAFALIVIALCTKNLEYPIHWLCSTYRRMCKASGKPVPPRLLTEEEYRIQGEVETQKALQELREFCNEPECSAWKTIERIQEPKRFADFVEGSFHLTPNEVSVHEQEYGLGSIFTQDEELEEEEEGSEYPTFTQNNFLT [S366E;S376E;S380E;S419E;S420E] |
| disrupting interaction strength | MAGGIKVSVWSAVGPGPRCWGAGGGGGATWLLLVVAGCVVCGSADVNVVMLQESQVDMNSSQQFCYKNVLIPKWHDIWTRIQVRVNSSKLVRVTQVDNEEKLKELEQFSIWNFFSSFLKEKLNDTYVNVGLYSTKTCLKVEMIEKDTTYSVTVTRRFDPKLFLVFLLGLTLFFCGDLLSRSQIFYYSTGMSVGIVASLLIVIFMISKFMPKRSPIYVILVGGWSFSLYLIQLVFKNLQEIWRSYWHYLLSYILTVGFMSFAVCYKYGPLENERSINLLTWTLQLLGLGLMYSSIQIPHVAFALIVIALCTKNLEYPIHWLCSTYRRMCKASGKPVPPRLLTEEEYRIQGEVETQKALQELREFCNAPECSAWKTIARIQAPKRFADFVEGSFHLTPNEVSVHEQEYGLGSIFTQDEELAAEEEGSEYPTFTQNNFLT [S366A;S376A;S380A;S419A;S420A] |
